How the values were obtained:
Experiment in all cases: cell-based or functional assay
mouse RXFP1 = biological target: T1, mouse RXFP1 (mouse, UniProt Q6R6I7 1-758)
T1 sequence (looked up): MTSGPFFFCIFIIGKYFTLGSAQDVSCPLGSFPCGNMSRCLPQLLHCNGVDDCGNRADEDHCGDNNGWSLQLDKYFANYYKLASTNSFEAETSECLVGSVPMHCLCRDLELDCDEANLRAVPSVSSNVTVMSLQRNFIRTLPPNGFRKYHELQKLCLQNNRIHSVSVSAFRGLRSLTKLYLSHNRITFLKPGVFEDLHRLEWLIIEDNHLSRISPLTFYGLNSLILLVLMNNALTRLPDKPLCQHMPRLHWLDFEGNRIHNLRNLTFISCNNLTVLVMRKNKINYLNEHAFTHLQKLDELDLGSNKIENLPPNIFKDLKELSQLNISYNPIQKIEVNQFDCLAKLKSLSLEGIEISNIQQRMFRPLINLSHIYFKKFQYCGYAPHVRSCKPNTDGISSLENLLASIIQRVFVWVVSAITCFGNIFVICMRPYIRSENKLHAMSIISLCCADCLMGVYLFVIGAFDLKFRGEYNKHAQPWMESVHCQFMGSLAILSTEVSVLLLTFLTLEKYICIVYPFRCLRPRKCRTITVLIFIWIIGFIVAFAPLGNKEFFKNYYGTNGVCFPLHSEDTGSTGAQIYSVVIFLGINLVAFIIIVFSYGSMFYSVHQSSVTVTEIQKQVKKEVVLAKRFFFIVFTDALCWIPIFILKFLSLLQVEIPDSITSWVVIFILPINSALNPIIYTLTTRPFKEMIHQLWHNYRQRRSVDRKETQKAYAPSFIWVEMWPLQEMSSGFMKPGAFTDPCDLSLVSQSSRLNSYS

human RXFP3 = biological target: T2, human RXFP3 (human, UniProt Q9NSD7 1-469)
T2 sequence (looked up): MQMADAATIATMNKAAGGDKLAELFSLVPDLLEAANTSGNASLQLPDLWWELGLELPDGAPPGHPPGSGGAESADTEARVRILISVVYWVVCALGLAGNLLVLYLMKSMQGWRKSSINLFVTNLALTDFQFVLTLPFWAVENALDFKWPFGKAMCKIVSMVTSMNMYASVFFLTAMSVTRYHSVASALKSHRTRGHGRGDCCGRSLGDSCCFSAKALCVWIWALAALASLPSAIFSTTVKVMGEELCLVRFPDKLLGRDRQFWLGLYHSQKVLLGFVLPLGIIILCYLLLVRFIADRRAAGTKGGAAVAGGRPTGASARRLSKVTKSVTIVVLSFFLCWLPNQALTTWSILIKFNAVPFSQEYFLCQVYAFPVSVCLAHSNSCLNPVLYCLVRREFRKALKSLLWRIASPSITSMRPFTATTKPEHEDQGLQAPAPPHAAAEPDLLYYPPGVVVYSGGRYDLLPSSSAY

human RXFP1 = biological target: T3, human RXFP1 (human, UniProt Q9HBX9 1-757)
T3 sequence (looked up): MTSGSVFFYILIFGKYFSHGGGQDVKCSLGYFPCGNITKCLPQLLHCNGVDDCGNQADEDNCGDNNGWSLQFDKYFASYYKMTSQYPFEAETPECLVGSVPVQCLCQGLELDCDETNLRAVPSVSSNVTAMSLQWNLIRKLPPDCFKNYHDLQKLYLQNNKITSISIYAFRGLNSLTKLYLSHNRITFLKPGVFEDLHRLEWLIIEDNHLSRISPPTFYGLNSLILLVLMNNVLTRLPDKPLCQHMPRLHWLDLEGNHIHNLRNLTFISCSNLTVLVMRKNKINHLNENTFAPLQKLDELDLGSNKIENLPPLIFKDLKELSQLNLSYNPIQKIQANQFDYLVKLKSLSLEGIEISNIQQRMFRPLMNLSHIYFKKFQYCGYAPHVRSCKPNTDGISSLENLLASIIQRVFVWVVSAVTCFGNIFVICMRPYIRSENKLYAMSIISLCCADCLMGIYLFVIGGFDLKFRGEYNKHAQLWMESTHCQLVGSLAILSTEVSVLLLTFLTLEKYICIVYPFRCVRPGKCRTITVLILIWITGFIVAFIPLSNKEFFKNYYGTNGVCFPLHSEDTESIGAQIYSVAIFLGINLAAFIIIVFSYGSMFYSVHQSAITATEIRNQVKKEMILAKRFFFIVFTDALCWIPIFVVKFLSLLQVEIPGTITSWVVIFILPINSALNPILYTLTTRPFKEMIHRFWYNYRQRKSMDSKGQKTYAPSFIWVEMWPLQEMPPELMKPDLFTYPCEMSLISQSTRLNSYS

B1: RLX-A-AQ1-20KPEG (ligand)
chain 1: XLYSALANKCCHVGCTKRSLARFC
chain 2: ASWMEEVIKLCGRELVRAQIAICGMSTWS
modifications: pACF (para-acetylphenylalanine) at position 1 of the A chain, linked to a 20 kDA PEG via an oxime linkage
For B1, the “Potency Ratio (RLX-A-AQ1-20KPEG/WT-RLX), cAMP assay, mouse RXFP1/CHO-K1 cells” value (mouse RXFP1) was 22 fold, the “RLX-A-AQ1-20KPEG Potency Ratio (hRXFP 1-1.0), cAMP assay” value (mouse RXFP1) was 0.66 ratio and the “cAMP Assay EC50 (nM), mouse RXFP1/CHO-K1 cells” value (mouse RXFP1) was 2.1 nM. For the same binder, the “cAMP Assay EC50 (nM), inhibition of forskolin-induced cAMP, human RXFP3/CHO-K1 cells” value (human RXFP3) was greater than 3000 nM, the “Potency Ratio (RLX-A-AQ1-20KPEG/WT-RLX), cAMP assay, THP-1 cells” value (human RXFP1) was 26 fold and the “Potency Ratio (RLX-A-AQ1-20KPEG/WT-RLX), cAMP assay, hRXFP1/CHO-K1 cells” value (human RXFP1) was 32 fold. The “RLX-A-AQ1-20KPEG Potency Ratio (hRXFP 1-1.0), cAMP assay” value (human RXFP1) was 1 ratio, the “cAMP Assay EC50 (nM), THP-1 cells” value (human RXFP1) was 7.6 nM and the “cAMP Assay EC50 (nM), hRXFP1/CHO-K1 cells” value (human RXFP1) was 3.2 nM.
